In US20020102234A1:

Target: human IL-1R1 (IL-1 receptor type I), full length, expressed in transfected Jurkat E6.1 cells (human) (UniProt P14778)
Assay: cell-based or functional assay

UniProt P14778, sequence (P14778 18-569): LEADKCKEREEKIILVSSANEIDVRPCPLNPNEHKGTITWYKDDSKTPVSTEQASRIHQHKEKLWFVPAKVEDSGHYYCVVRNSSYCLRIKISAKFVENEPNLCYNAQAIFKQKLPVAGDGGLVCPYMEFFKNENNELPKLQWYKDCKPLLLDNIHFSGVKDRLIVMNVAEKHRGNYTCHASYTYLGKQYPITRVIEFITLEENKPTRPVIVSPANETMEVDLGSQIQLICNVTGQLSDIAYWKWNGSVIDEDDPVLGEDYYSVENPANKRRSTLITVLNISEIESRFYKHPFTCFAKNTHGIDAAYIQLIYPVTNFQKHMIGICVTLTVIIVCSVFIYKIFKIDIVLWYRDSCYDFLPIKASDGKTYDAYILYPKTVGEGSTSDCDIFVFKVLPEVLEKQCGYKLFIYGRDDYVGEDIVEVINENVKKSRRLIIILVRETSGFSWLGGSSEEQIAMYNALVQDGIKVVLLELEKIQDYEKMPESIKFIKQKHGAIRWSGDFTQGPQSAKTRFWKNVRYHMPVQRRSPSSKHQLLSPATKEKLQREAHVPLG

In the case of “recombinant human IL-1RA (IL-1 receptor antagonist) (from UniProt P18510 26-177) (ligand)”, the excess over IL-1α giving 50% inhibition of the NFκB reporter response (fold excess over IL-1α) is reported as 1000.
